Measurements reported in article PMC4586593 (The Journal of General Physiology, 2015).
Where “and” joins values, the source holds several entries; their conditions need not be identical. Equal values may be shown once.

Target: actin from chicken pectoralis muscle (F-actin, TRITC-phalloidin labelled) (chicken, UniProt P68139 1-377)
Assay: method of Cremo and Geeves

B1: smooth muscle myosin S1 head (domain or fragment)
chain 1: SQKPLSDDEKFLFVDKNFVNNPLAQADWSAKKLVWVPSEKHGFEAASIKEEKGDEVTVELQENGKKVTLSKDDIQKMNPPKFSKVEDMAELTCLNEASVLHNLRERYFSGLIYTYSGLFCVVINPYKQLPIYSEKIIDMYKGKKRHEMPPHIYAIADTAYRSMLQDREDQSILCTGESGAGKTENTKKVIQYLAVVASSHKGKKDTSITQGPSFSYGELEKQLLQANPILEAFGNAKTVKNDNSSRFGKFIRINFDVTGYIVGANIETYLLEKSRAIRQAKDERTFHIFYYLIAGASEQMRNDLLLEGFNNYTFLSNGHVPIPAQQDDEMFQETLEAMTIMGFTEEEQTSILRVVSSVLQLGNIVFKKERNTDQASMPDNTAAQKVCHLMGINVTDFTRSILTPRIKVGRDVVQKAQTKEQADFAIEALAKAKFERLFRWILTRVNKALDKTKRQGASFLGILDIAGFEIFEINSFEQLCINYTNEKLQQLFNHTMFILEQEEYQREGIEWNFIDFGLDLQPCIELIERPTNPPGVLALLDEECWFPKATDTSFVEKLIQEQGNHAKFQKSKQLKDKTEFCILHYAGKVTYNASAWLTKNMDPLNDNVTSLLNQSSDKFVADLWKDVDRIVGLDQMAKMTESSLPSASKTKKGMFRTVGQLYKEQLTKLMTTLRNTNPNFVRCIIPNHEKRAGKLDAHLVLEQLRCNGVLEGIRICRQGFPNRIVFQEFRQRYEILAANAIPKGFMDGKQACILMIKALELDPNLYRIGQSKIFFRTGVLAHLEEERDLKITDVIIAFQAQCRGYLARKAFAKRQQQLTAMKVIQRNCAAYLKLRNWQWWRLFTKVKP
chain 2: CDFSEEQTAEFKEAFQLFDRTGDGKILYSQCGDVMRALGQNPTNAEVMKVLGNPKSDEMNLKTLKFEQFLPMMQTIAKNKDQGCFEDYVEGLRVFDKEGNGTVMGAEIRHVLVTLGEKMTEEEVEQLVAGHEDSNGCINYEELVRMVLSG
chain 3: SSKRAKAKTTKKRPQRATSNVFAMFDQSQIQEFKEAFNMIDQNRDGFIDKEDLHDMLASMGKNPTDEYLEGMMSEAPGPINFTMFLTMFGEKLNGTDPEDVIRNAFACFDEEASGFIHEDHLRELLTTMGDRFTDEEVDEMYREAPIDKKGNFNYVEFTRILKHGAKDKDD
Kd: 15 nM and 25 nM
